Measured values from paper doi:10.1101/2023.02.09.527835 (bioRxiv, 2023).

Molecular target: human complement C3a (human, UniProt P01024 672-748)
Assay: cryo-EM structure

Chain of human complement C3a (P01024 672-748): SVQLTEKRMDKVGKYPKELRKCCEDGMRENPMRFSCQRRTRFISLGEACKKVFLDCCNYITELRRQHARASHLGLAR

B1: human complement C3a receptor (C3aR), full-length, FLAG-M4(2-23)-C3aR construct for cryo-EM (receptor, UniProt P08173 2-23, looked up)
chain: ANFTPVNGSSGNQSVRLVTSSSMASFSAETNSTDLLSQPWNEPPVILSMVILSLTFLLGLPGNGLVLWVAGLKMQRTVNTIWFLHLTLADLLCCLSLPFSLAHLALQGQWPYGRFLCKLIPSIIVLNMFASVFLLTAISLDRCLVVFKPIWCQNHRNVGMACSICGCIWVVAFVMCIPVFVYREIFTTDNHNRCGYKFGLSSSLDYPDFYGDPLENRSLENIVQPPGEMNDRLDPSSFQTNDHPWTVPTVFQPQTFQRPSADSLPRGSARLTSQNLYSNVFKPADVVSPKIPSGFPIEDHETSPLDNSDAFLSTHLKLFPSASSNSFYESELPQGFQDYYNLGQFTDDDQVPTPLVAITITRLVVGFLLPSVIMIACYSFIVFRMQRGRFAKSQSKTFRVAVVVVAVFLVCWTPYHIFGVLSLLTDPETPLGKTLMSWDHVCIALASANSCFNPFLYALLGKDFRKKARQSIQGILEAAFSEELTRSTHCPSNNVISERNSTTV
modifications: alkylated with iodoacetamide
B1: binds.
